What was measured:
[1] = target: His-tagged recombinant human SMN protein (ProteinTech, catalog # ag14333) (human) (UniProt Q16637); assay: BLI (BLItz), His-tagged SMN immobilised on the biosensor tip, antibody in solution
[2] = target: His-tagged recombinant human SMN protein (ProteinTech, catalog # ag14333) (human) (UniProt Q16637); assay: Erenna sandwich assay, capture PT 60154-1-Ig; SMN 10 pg/mL, MPs 10 µg/well, Det Ab 100 ng/mL, Cap Ab/MP 12.5 µg/mg
[3] = target: His-tagged recombinant human SMN protein (ProteinTech, catalog # ag14333) (human) (UniProt Q16637); assay: Erenna sandwich assay, capture PT 60154-1-Ig; SMN 10 pg/mL, MPs 10 µg/well, Det Ab 1000 ng/mL, Cap Ab/MP 12.5 µg/mg
[4] = target: His-tagged recombinant human SMN protein (ProteinTech, catalog # ag14333) (human) (UniProt Q16637); assay: Erenna sandwich assay, capture PT 60154-1-Ig; SMN 10 pg/mL, MPs 5 µg/well, Det Ab 100 ng/mL, Cap Ab/MP 25 µg/mg
[5] = target: His-tagged recombinant human SMN protein (ProteinTech, catalog # ag14333) (human) (UniProt Q16637); assay: Erenna sandwich assay, capture PT 60154-1-Ig; SMN 10 pg/mL, MPs 5 µg/well, Det Ab 1000 ng/mL, Cap Ab/MP 25 µg/mg
[6] = target: His-tagged recombinant human SMN protein (ProteinTech, catalog # ag14333) (human) (UniProt Q16637); assay: Erenna sandwich assay, capture PT 60154-1-Ig; SMN 10 pg/mL, MPs 10 µg/well, Det Ab 50 ng/mL, Cap Ab/MP 12.5 µg/mg
[7] = target: His-tagged recombinant human SMN protein (ProteinTech, catalog # ag14333) (human) (UniProt Q16637); assay: Erenna sandwich assay, capture PT 60154-1-Ig; SMN 10 pg/mL, MPs 10 µg/well, Det Ab 1000 ng/mL, Cap Ab/MP 25 µg/mg
[8] = target: His-tagged recombinant human SMN protein (ProteinTech, catalog # ag14333) (human) (UniProt Q16637); assay: Erenna sandwich assay, capture PT 60154-1-Ig; SMN 10 pg/mL, MPs 5 µg/well, Det Ab 500 ng/mL, Cap Ab/MP 12.5 µg/mg
[9] = target: His-tagged recombinant human SMN protein (ProteinTech, catalog # ag14333) (human) (UniProt Q16637); assay: Erenna sandwich assay, capture PT 60154-1-Ig; SMN 10 pg/mL, MPs 10 µg/well, Det Ab 500 ng/mL, Cap Ab/MP 25 µg/mg
[10] = target: His-tagged recombinant human SMN protein (ProteinTech, catalog # ag14333) (human) (UniProt Q16637); assay: Erenna sandwich assay, capture PT 60154-1-Ig; SMN 10 pg/mL, MPs 5 µg/well, Det Ab 500 ng/mL, Cap Ab/MP 25 µg/mg
[11] = target: His-tagged recombinant human SMN protein (ProteinTech, catalog # ag14333) (human) (UniProt Q16637); assay: Erenna sandwich assay, capture PT 60154-1-Ig; SMN 10 pg/mL, MPs 10 µg/well, Det Ab 500 ng/mL, Cap Ab/MP 12.5 µg/mg
[12] = target: His-tagged recombinant human SMN protein (ProteinTech, catalog # ag14333) (human) (UniProt Q16637); assay: Erenna sandwich assay, capture PT 60154-1-Ig; SMN 10 pg/mL, MPs 5 µg/well, Det Ab 50 ng/mL, Cap Ab/MP 25 µg/mg
[13] = target: His-tagged recombinant human SMN protein (ProteinTech, catalog # ag14333) (human) (UniProt Q16637); assay: Erenna sandwich assay, capture PT 60154-1-Ig; SMN 10 pg/mL, MPs 10 µg/well, Det Ab 100 ng/mL, Cap Ab/MP 25 µg/mg
[14] = target: His-tagged recombinant human SMN protein (ProteinTech, catalog # ag14333) (human) (UniProt Q16637); assay: Erenna sandwich assay, capture PT 60154-1-Ig; SMN 10 pg/mL, MPs 5 µg/well, Det Ab 50 ng/mL, Cap Ab/MP 12.5 µg/mg
[15] = target: His-tagged recombinant human SMN protein (ProteinTech, catalog # ag14333) (human) (UniProt Q16637); assay: Erenna sandwich assay, capture PT 60154-1-Ig; SMN 10 pg/mL, MPs 10 µg/well, Det Ab 50 ng/mL, Cap Ab/MP 25 µg/mg
[16] = target: His-tagged recombinant human SMN protein (ProteinTech, catalog # ag14333) (human) (UniProt Q16637); assay: Erenna sandwich assay, capture PT 60154-1-Ig; SMN 10 pg/mL, MPs 5 µg/well, Det Ab 1000 ng/mL, Cap Ab/MP 12.5 µg/mg
[17] = target: His-tagged recombinant human SMN protein (ProteinTech, catalog # ag14333) (human) (UniProt Q16637); assay: Erenna sandwich assay, capture PT 60154-1-Ig; SMN 10 pg/mL, MPs 5 µg/well, Det Ab 100 ng/mL, Cap Ab/MP 12.5 µg/mg

Sequence of UniProt Q16637 (Q16637 whole entry): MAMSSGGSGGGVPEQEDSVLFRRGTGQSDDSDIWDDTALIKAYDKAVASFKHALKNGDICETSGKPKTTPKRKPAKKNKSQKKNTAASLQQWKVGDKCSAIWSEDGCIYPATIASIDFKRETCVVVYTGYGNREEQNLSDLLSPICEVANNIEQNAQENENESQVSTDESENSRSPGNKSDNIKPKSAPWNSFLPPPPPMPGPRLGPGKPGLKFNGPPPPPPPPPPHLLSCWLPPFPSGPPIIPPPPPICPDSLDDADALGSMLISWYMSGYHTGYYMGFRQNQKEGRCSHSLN

Substance: BD Biosciences anti-SMN (catalog #610647) (antibody)
- kon [1]: 637000 M⁻¹ s⁻¹

Substance: Enzo anti-SMN1 (catalog # ADI-NBA-202-200) (antibody)
- Kd [1]: < 0.1 nM
- koff [1]: < 1e-07 s⁻¹
- kon [1]: 12300 M⁻¹ s⁻¹

Substance: Millipore anti-SMN2 (catalog # MABE230) (antibody)
- detected events (DE) (detected events) [2]: 523
- Kd [1]: < 0.001 nM
- koff [1]: < 1e-07 s⁻¹
- kon [1]: 105000 M⁻¹ s⁻¹
- detected events (DE) (detected events) [3]: 3720
- detected events (DE) (detected events) [4]: 481
- detected events (DE) (detected events) [5]: 3440
- detected events (DE) (detected events) [6]: 302
- detected events (DE) (detected events) [7]: 3370
- detected events (DE) (detected events) [8]: 1960
- detected events (DE) (detected events) [9]: 2140
- detected events (DE) (detected events) [10]: 2040
- detected events (DE) (detected events) [11]: 2180
- detected events (DE) (detected events) [12]: 256
- detected events (DE) (detected events) [13]: 505
- detected events (DE) (detected events) [14]: 231
- detected events (DE) (detected events) [15]: 269
- detected events (DE) (detected events) [16]: 3570
- detected events (DE) (detected events) [17]: 501

Substance: ProteinTech anti-SMN2 (catalog #60154-2-Ig) (antibody)
- Kd [1]: < 1 nM
- koff [1]: < 1e-07 s⁻¹
- kon [1]: 884 M⁻¹ s⁻¹

From patent US20170363643A1
